Laboratory results reported in the supplement of paper PMC12764529.
± gives the half width of the 95% confidence interval.

Experiment: folding stability dG unfold from trypsin proteolysis; higher = more stable
Method in brief: (§1)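 Unfolding free energy was derived, per protease or combined, by relating Bayesian-fitted K50 values from sequencing counts to a sequence-predicted unfolded-state K50 and a shared folded-state K50. The underlying digests exposed cysteine-free mini-proteins under 80 residues, in a PA-tagged cDNA display construct, to trypsin and chymotrypsin at 11 threefold-diluted concentrations and to a no-protease condition. A filter kept only designs with AlphaFold2 dimer inter-PAE above 15.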

Going from “SAGGMIQIERDKDGYLRITIWVPGDPKEAEEIAENIIELLQDLGFDEVDIDYEPFDGGVMIEITVKVSAGGS [r8_113_TrROS]” to “SAGKIEIEVNEDGYKVRIKVEIEGKTYEFEIKVEGLSVEEIVKKALEELKKLFPNKKIKVEVEILPKKESAG [r5_180_TrROS_Hall]”, the “folding stability dG unfold” value rises from 2.9 ± 0.12 kcal/mol to 4.14 ± 0.21 kcal/mol.

Compared with “SAGGSAGGSAPTLELTVTLPDGLRVTVRYDLETDEVTIEVRPLPAPPPPELSEEERKKLAEESAGGSAGGSA [r18_236_TrROS_Hall]”, “SAGEPLGPEKAKELAEELVERVAREIAERLGLAPEEVEVVSVELTPDGRLVLTLRVPEREFTFVFPVEGSAG [r5_565_TrMRF]” is higher in “folding stability dG unfold” value: 1.24 ± 0.056 kcal/mol for the first, 3.36 ± 0.078 kcal/mol for the second.

Going from “SAGGSMKEIVELGEVEFEEDSVALKVKFKVKLVFYDPETGEKVEEREEELEVYFGGDTLEFSPVEGSAGGSA [r2_271_TrMRF]” to “SAGGSAGGSAGKKSYVLIKVKNPKTKETHTIVVPEENLEEVLKALASQPNVKVVDIERFPSAGGSAGGSAGG [r11_692_TrROS_Hall]”, the “folding stability dG unfold” value rises from 1.49 ± 0.045 kcal/mol to 3.65 ± 0.19 kcal/mol.

Going from “SAGMTIKIKNKKTNKVITIERRPDGTTVKVKVYDKNGKLVKTYPEGMTLEELLKKFPNAKVEVVEVEKPSAG [r5_314_TrROS_Hall]” to “SAAVTPLTETIPYTPEEARAAAEEVAAARAAALRAAGYRVLSVDVVEMEPGEYVIRMRLTVAAPDEALPSAG [r14_973_JUSTAS]”, the “folding stability dG unfold” value rises from 1.47 ± 0.033 kcal/mol to 2.22 ± 0.033 kcal/mol.

Going from “SAGGSAGGSAPWLTIIFRMDTPEMAKEIANWLREDGLDIEVETEPDPNDGRFWVMITIQLPNSAGGSAGGSA [r18_455_TrROS]” to “SAGGSAGGSAGKTVVIEIKGMSKEQVLNLIKELAEKYPNSKIIITNENGEKIEINVKDLKSAGGSAGGSAGG [r11_541_TrROS_Hall]”, the “folding stability dG unfold” value falls from 3.57 ± 0.16 kcal/mol to 1.95 ± 0.13 kcal/mol.

Compared with “SAGGSVEVEPLPNGLLRVTTVFSESKTPILRKLTYKDENGKPLGTKLELLPEEVEVESVTELLPPELLSAGG [r13_848_JUSTAS]”, “SAGGASLDDLPLEGIEVLEEEVIPLPNGSTLRKFLVKKPSPGPPELLVEVTEFVDEGSSSVSVTPLGSAGGS [r16_469_JUSTAS]” is higher in “folding stability dG unfold” value: -1.07 ± 0.29 kcal/mol for the first, 0.179 ± 0.054 kcal/mol for the second.

First: SAGGDNKPKVYPITFMIPPDDIKPGDEIPIDEIADNLGIPPNYTIKIKEVQPNPEDGYYMYRIEIVWSAGGS [r16_165_TrROS]
Second: SAGNMFMVRITFPMPRYEQKRDPDNGKPKMEPKPHPREITIMVPPDSPQARDLANKLAPPGWKVDVFPMSAG [r5_468_TrROS]
The “folding stability dG unfold” value of the first is higher: 1.57 ± 0.041 kcal/mol for the first, 0.0695 ± 0.58 kcal/mol for the second.

Compared with “SAMTIEITVPPGMSVEELAKLLKELFPEVEEIKIEVEYDEETKELKVRIEIRPKPELSEEEKEALEKLKSAG [r14_645_TrROS_Hall]”, “SAGGSAGGSAGMTITVPITDLEKLKTMPELPVEVIEEGEGPPTATLDASNPELAKQAYSSSAGGSAGGSAGG [r11_65_JUSTAS]” is lower in “folding stability dG unfold” value: 2.9 ± 0.28 kcal/mol for the first, -0.0977 ± 0.18 kcal/mol for the second.

Going from “SLEEFLASEEAKKRLEALKPPPPVETIRIKVKAKSVEEALKAIRELFPGVEVVKIKEVRPDGYLEVEVRRSA [r9_723_TrROS_Hall]” to “SAGGSAGGSAGGGMGSSVTITTEEDPTDETETTKKTKVTLNLPNPEEAEALKKKIEEKESAGGSAGGSAGGS [r10_1180_JUSTAS]”, the “folding stability dG unfold” value falls from 3.89 ± 0.41 kcal/mol to -0.47 ± 0.18 kcal/mol.

“SAGGMVVVKIRIEREVDGKVEEVELVLEVELDEDGKVSAEELKALLKELLPENVKITEIEVVEPGEEPSAGG [r13_504_TrROS_Hall]” and “SAGGSAGGSEEVEIRIVLPDMSEEELKAALEALLSEPGAEIEIVRVERREDGSLVVTVKVRVPSAGGSAGGS [r12_348_TrROS_Hall]” are within error of each other in “folding stability dG unfold” value: 4.76 ± 0.69 kcal/mol for the first, 4.83 ± 0.43 kcal/mol for the second.

“SAGGSAGGSAGGSKKVIEVPAKDLTPEQLKKLAKEGETIEITFPNGEKKEIPAEKLKPKSAGGSAGGSAGGS [r4_382_TrROS_Hall]” and “SAGGDILLVIPAELFFDEDGKPSEEAVKAIEKAAELAEKLNKEGKPVKIEVKVVPLLPPVSPSDPYVFSAGG [r13_731_TrMRF]” are within error of each other in “folding stability dG unfold” value: 0.115 ± 0.15 kcal/mol for the first, 0.162 ± 0.055 kcal/mol for the second.

Going from “SAGGSAGGSAGGPEYIQINIKIYDPDNPKEREIPISMPVEEIEKIAKEFMPPGYRVEIISAGGSAGGSAGGS [r10_397_TrROS]” to “SAGMSTSGPIFVPEGPPAIYISYPKPNVKFVVPVSEGIEAVKKRAEEPGLNPVIIKVVETPPGVPVTLSAGG [r19_386_JUSTAS]”, the “folding stability dG unfold” value falls from 0.152 ± 0.14 kcal/mol to -0.988 ± 0.34 kcal/mol.

Going from “SAGGMDVKVEVKEVELPEAKVTITKITTPDGSTSTITYDPETGTADVTTTTPTSTTTTTLPKSEIKPLSAGG [r13_328_JUSTAS]” to “SAGGSAGGSAGIPNLIAYEVSKEGKPVKIIVKSPNGEEYEITVSPNESIPENIEILKVEVGSAGGSAGGSAG [r3_421_TrMRF]”, the “folding stability dG unfold” value falls from 0.846 ± 0.097 kcal/mol to 0.685 ± 0.034 kcal/mol.

Compared with “SAGGTVKVTVEVRDEETGETVTVEVEVEPAPAPPVVVLPAEDLEKLRELGFPENAVLDEETNELVIFSAGGS [r16_194_TrROS_Hall]”, “SAGMKVEVVERKGPDGRLVRVVKETTITPVPGPAVAEANGAPLTPEDEKVVTVTTTVLDPEGKVLETVDSAG [r5_128_JUSTAS]” is lower in “folding stability dG unfold” value: 0.537 ± 0.085 kcal/mol for the first, -0.903 ± 0.43 kcal/mol for the second.

First: SAGGSAGGSAGVPVPGTDVPAEPITVLKKNPDGTVTKLKDESLTLEEIKAKLPGEVEFVGSAGGSAGGSAGG [r17_125_JUSTAS]
Second: SSMSTPSSSTLTVELPDREVTASATTTTLPDGTTTTTTTFPDGSTITYDPATGTTTIYDPATGAPLATTGSA [r9_970_JUSTAS]
The “folding stability dG unfold” value of the first is lower: 0.0884 ± 0.14 kcal/mol for the first, 0.959 ± 0.048 kcal/mol for the second.

First: SSFMEQARNMAEELLQKKGLPPKPGEKVEIPIPYPNGMQIRITINPEEKKIDVEFYNDNQPVEHTFKIKKSA [r9_426_TrROS]
Second: SAGGSAGGSAGMMEEKLIKEYEDPNGGKKYTIKLVKDPKTGKEKIVKETIEPNKKTTEIKNLSAGGSAGGSA [r18_444_JUSTAS]
The “folding stability dG unfold” value of the first is higher: 0.267 ± 0.33 kcal/mol for the first, -0.36 ± 0.21 kcal/mol for the second.

“SAGGSAGGSVKVTTEPLPNGERLVTVTAYLKSKPYPVLMPYPASATPEQVKETALRIEKELEKSAGGSAGGS [r12_69_TrMRF]” and “SAGGSAGGSAGGYKVKVYNPENGKPQEIPLPPNDIPELLDKLPNGPWWIRVKDPDRWIPLSAGGSAGGSAGG [r7_188_TrROS]” are within error of each other in “folding stability dG unfold” value: -0.999 ± 0.49 kcal/mol for the first, -1.05 ± 0.51 kcal/mol for the second.

“SAGGSAGGSKFPKKFTVEVYTLTKKLKTPEGKLKTETTVLIEKTEEIKPLPEIDEERVEKVLLSAGGSAGGS [r12_1060_JUSTAS]” and “SAGGGVSTSTDPNSDTTTTTVPLPNSDSTATSTHNPSTGTSTTTVPTNNTTTTYSPGGTTTATTTLPTSAGG [r13_101_JUSTAS]” are within error of each other in “folding stability dG unfold” value: 0.166 ± 0.71 kcal/mol for the first, 0.465 ± 0.034 kcal/mol for the second.

First: SAGEIAEALGFEVVDVSIEEVDGKLRITVVVRFKDNDLVITAEAEVTEVDGELKIEIKITIEPLPPEDLSAG [r5_516_TrROS_Hall]
Second: SLEIAKELGFPIKRFEPTEMDPDNGRQKWEAYIPMPNRTVRVDIDIRYEPDPNGKRQPKIQIDSIEFMPPSA [r9_613_TrROS]
The “folding stability dG unfold” value of the first is higher: 2.85 ± 0.26 kcal/mol for the first, 0.392 ± 0.12 kcal/mol for the second.

“SAMLTTLETTTTTSDSLTVTTSLSLLPDGSLVTTTTVIDTSGNVLSSTTTVEPGPPPVTPENIALMVRLSAG [r14_171_JUSTAS]” and “SAGGSNNDNQPEPKVPYMEITINIPVNYNPNQSEEDRKRQVQEFIEELKDMYIPFPNGYPIRIDVMSAGGSA [r2_149_TrROS]” are within error of each other in “folding stability dG unfold” value: 0.298 ± 0.12 kcal/mol for the first, 0.149 ± 0.13 kcal/mol for the second.

First: SAGGSANMREVEIPMTPNDLEEALEEVEDAPPGRNVSVNMTNPEEGKPYPIKIRVNENGKLTEIEFSAGGSA [r15_228_TrROS]
Second: SAGGSAGGSGKWMTAKELLKEFKPGKTIMIRMPPGTEIPPNIKPKGTFPGNGWMMIKIPPNDISAGGSAGGS [r12_356_TrROS]
The “folding stability dG unfold” value of the first is higher: 0.501 ± 0.077 kcal/mol for the first, -0.2 ± 0.45 kcal/mol for the second.

“SAGGSAGGSAGEPEKPVLVKVILPGGKPLLIPGKREEAKKAVEELEKKGFPVEKAEVFDESAGGSAGGSAGG [r11_946_TrMRF]” and “SAGGSAGGSAGGKLVKVTFRTPGGGTLTVEVPPTESLTLPYGDKPILVDVKEDEVVFRDESAGGSAGGSAGG [r7_510_TrMRF]” are within error of each other in “folding stability dG unfold” value: -0.485 ± 0.096 kcal/mol for the first, -0.572 ± 0.18 kcal/mol for the second.

Compared with “SAGGSAGGSMTETVVLPYPLPPGVPFHIELPDGSKSVSADPETGTLTVLVKKGTEEAVKEALASAGGSAGGS [r12_476_JUSTAS]”, “SAGGSAGGSAGGSKKTAVLKVGDKWIPLEIDEDKVTLIYPDGKKEEISLEDIPENTISDASAGGSAGGSAGG [r7_748_TrMRF]” is higher in “folding stability dG unfold” value: -0.508 ± 0.12 kcal/mol for the first, 0.0901 ± 0.064 kcal/mol for the second.

Experiment: folding stability dG unfold from chymotrypsin proteolysis; higher = more stable
Method in brief: as §1

First: SAGGMIQIERDKDGYLRITIWVPGDPKEAEEIAENIIELLQDLGFDEVDIDYEPFDGGVMIEITVKVSAGGS [r8_113_TrROS]
Second: SAGKIEIEVNEDGYKVRIKVEIEGKTYEFEIKVEGLSVEEIVKKALEELKKLFPNKKIKVEVEILPKKESAG [r5_180_TrROS_Hall]
The “folding stability dG unfold” value of the first is lower: 3.49 ± 0.083 kcal/mol for the first, 4.81 ± 0.3 kcal/mol for the second.

First: SAGGSAGGSAPTLELTVTLPDGLRVTVRYDLETDEVTIEVRPLPAPPPPELSEEERKKLAEESAGGSAGGSA [r18_236_TrROS_Hall]
Second: SAGEPLGPEKAKELAEELVERVAREIAERLGLAPEEVEVVSVELTPDGRLVLTLRVPEREFTFVFPVEGSAG [r5_565_TrMRF]
The “folding stability dG unfold” value of the first is lower: 2.25 ± 0.2 kcal/mol for the first, 4.89 ± 0.054 kcal/mol for the second.

Compared with “SAGGSMKEIVELGEVEFEEDSVALKVKFKVKLVFYDPETGEKVEEREEELEVYFGGDTLEFSPVEGSAGGSA [r2_271_TrMRF]”, “SAGGSAGGSAGKKSYVLIKVKNPKTKETHTIVVPEENLEEVLKALASQPNVKVVDIERFPSAGGSAGGSAGG [r11_692_TrROS_Hall]” is higher in “folding stability dG unfold” value: 2.373 ± 0.02 kcal/mol for the first, 4.11 ± 0.065 kcal/mol for the second.

In the case of “SAGMTIKIKNKKTNKVITIERRPDGTTVKVKVYDKNGKLVKTYPEGMTLEELLKKFPNAKVEVVEVEKPSAG [r5_314_TrROS_Hall]”, the “folding stability dG unfold” value is reported as 0.559 ± 0.11 kcal/mol.
